T1: N-terminal ECD protein of mouse FGFR3 with a terminal avidin tag (mouse, UniProt Q61851 21-369)
T1 construct: extracellular domain; not shown: terminal avidin tag
T1 sequence (looked up): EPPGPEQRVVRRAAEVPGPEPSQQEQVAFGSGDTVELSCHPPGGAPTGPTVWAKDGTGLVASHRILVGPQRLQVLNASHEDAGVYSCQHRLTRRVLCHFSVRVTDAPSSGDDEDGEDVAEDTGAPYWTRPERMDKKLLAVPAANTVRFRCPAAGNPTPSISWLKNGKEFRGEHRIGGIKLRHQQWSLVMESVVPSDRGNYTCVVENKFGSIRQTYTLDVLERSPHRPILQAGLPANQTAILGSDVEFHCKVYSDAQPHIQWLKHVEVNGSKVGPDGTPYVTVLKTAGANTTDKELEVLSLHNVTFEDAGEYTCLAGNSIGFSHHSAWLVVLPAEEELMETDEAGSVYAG

T2: human FGFR3 isoform IIIb (human, UniProt P22607-2 23-377)
T2 construct: Isoform IIIb differs from the canonical IIIc entry in the D3 domain; also called hFGFR3IIIb; FGFR3 IIIb
T2 sequence (looked up): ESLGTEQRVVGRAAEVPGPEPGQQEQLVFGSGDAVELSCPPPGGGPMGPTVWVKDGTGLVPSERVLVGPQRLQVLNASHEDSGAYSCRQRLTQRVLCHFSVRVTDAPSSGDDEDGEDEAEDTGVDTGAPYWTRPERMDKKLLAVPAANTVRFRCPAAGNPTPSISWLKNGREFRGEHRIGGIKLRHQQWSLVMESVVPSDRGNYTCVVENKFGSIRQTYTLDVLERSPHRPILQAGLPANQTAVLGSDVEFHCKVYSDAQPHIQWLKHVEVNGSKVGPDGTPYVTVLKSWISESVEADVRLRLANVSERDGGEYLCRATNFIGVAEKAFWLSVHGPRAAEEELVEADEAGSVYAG

T3: human FGFR3 isoform IIIc (human, UniProt P22607 23-375, limits assumed)
T3 construct: also called hFGFR3IIIc; FGFR3 IIIc
T3 sequence: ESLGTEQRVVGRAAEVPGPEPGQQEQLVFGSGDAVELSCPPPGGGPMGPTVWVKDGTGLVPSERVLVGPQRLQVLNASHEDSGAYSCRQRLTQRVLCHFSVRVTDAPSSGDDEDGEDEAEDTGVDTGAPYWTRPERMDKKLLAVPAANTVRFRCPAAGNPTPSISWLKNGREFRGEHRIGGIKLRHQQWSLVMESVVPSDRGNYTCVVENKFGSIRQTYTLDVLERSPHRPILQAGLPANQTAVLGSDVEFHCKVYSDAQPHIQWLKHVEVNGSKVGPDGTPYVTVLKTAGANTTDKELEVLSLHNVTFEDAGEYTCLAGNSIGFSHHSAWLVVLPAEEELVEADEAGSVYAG

T4: cynomolgus FGFR3 (cynomolgus)
T4 construct: also called cynoFGFR3
T4 chain: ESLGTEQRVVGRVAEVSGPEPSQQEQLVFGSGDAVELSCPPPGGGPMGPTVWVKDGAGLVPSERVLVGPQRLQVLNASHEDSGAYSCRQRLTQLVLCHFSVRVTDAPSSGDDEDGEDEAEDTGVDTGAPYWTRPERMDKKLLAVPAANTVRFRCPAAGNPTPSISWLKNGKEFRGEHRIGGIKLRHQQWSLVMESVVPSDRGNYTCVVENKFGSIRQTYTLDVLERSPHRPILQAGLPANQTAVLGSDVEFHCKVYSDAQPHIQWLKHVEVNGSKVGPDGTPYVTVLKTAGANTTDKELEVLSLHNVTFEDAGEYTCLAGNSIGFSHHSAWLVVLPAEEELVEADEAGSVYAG

T5: human FGFR3 (human, UniProt P22607 23-375)
T5 construct: also called hFGFR3
T5 sequence: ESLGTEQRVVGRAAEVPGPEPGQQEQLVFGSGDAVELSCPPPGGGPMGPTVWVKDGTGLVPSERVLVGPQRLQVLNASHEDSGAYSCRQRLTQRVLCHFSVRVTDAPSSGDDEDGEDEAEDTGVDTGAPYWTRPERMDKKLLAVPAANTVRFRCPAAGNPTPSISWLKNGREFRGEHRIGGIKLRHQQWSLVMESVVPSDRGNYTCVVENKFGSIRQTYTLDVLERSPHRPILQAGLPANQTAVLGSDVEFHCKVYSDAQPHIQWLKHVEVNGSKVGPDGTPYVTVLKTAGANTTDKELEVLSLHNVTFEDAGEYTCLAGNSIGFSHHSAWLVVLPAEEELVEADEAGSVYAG

T6: mouse FGFR3 (mouse, UniProt Q61851 21-369)
T6 construct: extracellular domain; also called mFGFR3
T6 sequence (looked up): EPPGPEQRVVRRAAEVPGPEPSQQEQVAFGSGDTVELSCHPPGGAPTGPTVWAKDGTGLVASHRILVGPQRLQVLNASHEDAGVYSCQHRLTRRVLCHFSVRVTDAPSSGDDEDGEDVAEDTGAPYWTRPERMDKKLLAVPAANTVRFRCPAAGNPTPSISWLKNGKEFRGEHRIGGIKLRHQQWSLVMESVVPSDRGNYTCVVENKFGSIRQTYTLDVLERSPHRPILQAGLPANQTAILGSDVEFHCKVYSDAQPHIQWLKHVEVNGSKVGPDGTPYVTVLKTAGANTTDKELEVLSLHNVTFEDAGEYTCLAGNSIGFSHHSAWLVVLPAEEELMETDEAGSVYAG


Columns and labels:
[1] = biological target: T1, N-terminal ECD protein of mouse FGFR3 …; experiment: SPR (Biacore), FGFR3 ECD immobilised on chip, antibody injected, 1:1 fit
Method: The N-terminal ECD proteins of FGFR3 from human and mouse were produced with a terminal avidin tag and used in a forward format Biacore assay where proteins were immobilized on a Biacore chip and then the kinetics of antibody interaction with the proteins on the chip were determined. The proteins were immobilized on a Biacore chip for approximately 10,000 response units (RU). Then the antibodies were exposed to the chip for kinetic measurements, following the manufacturer's recommendations (GE Healthcare). Sensorgrams were fit to a 1:1 binding model and analyzed using double-reference subtraction by T200 Evaluation software (GE Healthcare).

human FGFR3 isoform IIIb = biological target: T2, human FGFR3 isoform IIIb; experiment: reactivity grade (Table 2); method not given
human FGFR3 isoform IIIc = biological target: T3, human FGFR3 isoform IIIc; experiment: reactivity grade (Table 2); method not given
cynomolgus FGFR3 = biological target: T4, cynomolgus FGFR3; experiment: reactivity grade (Table 2); method not given
human FGFR3 = biological target: T5, human FGFR3; experiment: affinity table; method not restated (Biacore SPR per Example 1)
mouse FGFR3 = biological target: T6, mouse FGFR3; experiment: as above

Binder	Kd [1] [nM]	koff [1] [s⁻¹]	kon [1] [M⁻¹ s⁻¹]	binding result (human FGFR3 isoform IIIb)	binding result (human FGFR3 isoform IIIc)	binding result (cynomolgus FGFR3)	Kd (human FGFR3) [nM]	Kd (mouse FGFR3) [nM]
KE58 (antibody, V domains shown, Mouse monoclonal antibody from a hybridoma; also called anti-FGFR3 antibody KE58) VH: EVQLQQSGPDLVKPGASVKISCKASGYTVTDYYMNWVKQSHGKSLEWIGDINPNNGVTTYNQKFKDKATLTVDKSSSTAYMELRSLTSEDSAVYYCAREEDFDGFDYWGQGTTLTVSS VL: DIVMTQSHKFMSTSVGDRVSITCKASQDVSTGVAWYQQKPGQSPQLLIYWASTRHTGVPDRFTGSGSGTDYILTIRSVQAEDLALYYCQQHYSTPLTFGAGTKLELK	5.5	0.000918	167000	binds	binds	binds	–	–
KC18_Hu16 (antibody, human IgG1, kappa, V domains shown) VH: EVQLVQSGAEVKKPGATVKLSCKASGDTFTDFEIHWVQQAPGKGLEWIGDVDPETGGTAYAEKFQGRATLTADRSTDTAYMELSSLRSEDTAVYYCTRTYDGYPYAMDYWGQGTLVTVSS VL: not shown	–	–	–	–	–	–	3.76	4.23
KC18_Hu27 (antibody, human IgG1, kappa, V domains shown) VH: QVQLVQSGAEVVKPGATVKLSCKASGDTFTDFEIHWVKQAPGKGLEWIGDIDPETGGTAYNEKFQGRATLTADRSTSTAYMELSSLRSEDTAVYYCTRTYDGYPYAMDYWGQGTTVTVSS VL: DIVMTQSPSSLAVSLGERVTMNCKSSQSLLYSNNQKNYLAWYQQKPGQSPKLLIYWASTRESGVPDRFSGSGSGTDFTLTISSVQAEDVAVYYCQQYYSYRTFGGGTKLEIKR	–	–	–	–	–	–	3.9	4.6
KC18_Hu19 (antibody, human IgG1, kappa, V domains shown) VH: QVQLVQSGAEVVKPGATVKISCKASGDTFTDFEIHWVQQAPGKGLEWIGDIDPETGGTAYNEKFQGRATLTADRSTSTAYMELSSLRSEDTAVYYCARTYDGYPYAMDYWGQGTTVTVSS VL: not shown	–	–	–	–	–	–	2.99	3.78
KC18_Hu13 (antibody, human IgG1, kappa, V domains shown) VH: QVQLVQSGAEVKKPGASVKVSCKASGDTFTDFEIHWVRQAPGQGLEWIGDIDPETGSTSYAQKFQGRATLTADRSTSTAYMELSSLRSEDTAVYYCTRTYDGYPYAMDYWGQGTLVTVSS VL: not shown	–	–	–	–	–	–	4.52	5.28
KC18_Hu10 (antibody, human IgG1, kappa, V domains shown) VH: EVQLVQSGAEVKKPGATVKLSCKASGDTFTDFEIHWVQQAPGKGLEWIGDVDPETGGTAYAEKFQGRATLTADRSTDTAYMELSSLRSEDTAVYYCTRTYDGYPYAMDYWGQGTLVTVSS VL: not shown	–	–	–	–	–	–	4.73	5.15
KC18_Hu18 (antibody, human IgG1, kappa, V domains shown) VH: EVQLVQSGAEVKKPGATVKLSCKASGDTFTDFEIHWVQQAPGKGLEWIGDVDPETGGTAYAEKFQGRATLTADRSTDTAYMELSSLRSEDTAVYYCTRTYDGYPYAFDYWGQGTLVTVSS VL: not shown	–	–	–	–	–	–	1.25	1.42
KC18_Hu7 (antibody, human IgG1, kappa, V domains shown) VH: QVQLVQSGAEVKKPGASVKVSCKASGDTFTDFEIHWVRQAPGQGLEWIGDIDPETGSTSYAQKFQGRATLTADRSTSTAYMELSSLRSEDTAVYYCTRTYDGYPYAMDYWGQGTLVTVSS VL: not shown	–	–	–	–	–	–	5.41	6.36
KC18_Hu12 (antibody, human IgG1, kappa, V domains shown) VH: EVQLVQSGAEVKKPGATVKLSCKASGDTFTDFEIHWVQQAPGKGLEWIGDVDPETGGTAYAEKFQGRATLTADRSTDTAYMELSSLRSEDTAVYYCTRTYDGYPYAFDYWGQGTLVTVSS VL: not shown	–	–	–	–	–	–	1.61	1.73
KC18_Hu23 (antibody, human IgG1, kappa, V domains shown) VH: QVQLVQSGAEVVKPGATVKISCKASGDTFTDFEIHWVQQAPGKGLEWIGDIDPETGGTAYNEKFQGRATLTADRSTSTAYMELSSLRSEDTAVYYCARTYDGYPYAMDYWGQGTTVTVSS VL: not shown	–	–	–	–	–	–	2.68	3.35
KE63 (antibody, V domains shown, Mouse monoclonal antibody from a hybridoma; also called anti-FGFR3 antibody KE63) VH: QVQLQQSGAELVRPGASVTLSCKASGSTFSDFEIHWVKQTPVHGLEWIGGIDPETGGTAYNQKFKGKAILTADRSSSTAYMELRSLTSEDSAVYYCTRNYDGYSQTMDYWGQGTSVTVSS VL: NIMMTQSPSSLAVSAGEKVTMSCKSSQSVLYSSNQKNYLAWYQQKPGQSPKLLIYWASTRESGVPDRFTGSGSGTDFTLTISSVQAEDLAVYYCHQYLSSYTFGGGTKLEMK	6.7	0.00291	436000	binds	binds	binds	–	–
KC18 (antibody, V domains shown, Mouse hybridoma antibody; also called parental KC18 antibody) VH: QVQLQQSGAELVRPGASVTLSCKASGDTFTDFEIHWVKQTPVHGLEWIGDIDPETGGTAYNQKFRGRAMLTADRSSSTAYMELRSLTSEDSAVYYCTRTYDGYPYAMDYWGQGTSVTVSS VL: DIVMSQSPSSLAVSVGEKVTMSCKSSQSLLYSNNQKNYLAWYQQKPGQSPKLLIYWASTRESGVPDRFTGSGSGTDFTLTISSVKAEDLAVYYCQQYYSYRTFGGGTKLEIK	–	–	–	–	–	–	2.73	3.78
KE35 (antibody, V domains shown, Mouse monoclonal antibody from a hybridoma; also called anti-FGFR3 antibody KE35) VH: EVQLQQSGPELVKPGASVKMSCKASGYTFTDYNMHWVKQSHGKSLEWIGYINPNNGGTRYNQKFKGKATLTVNKSSSTAYMELRSLTSEDSAVYYCARERDYDGAMDYWGQGTSVTVSS VL: DIQMTQSPSSLSASLGGKVTITCKASQDINKFIAWYQHKPGKGPRLLIHYTSTLQPGIPSRFSGSGSGRDYSFSISNLEPEDIATYYCLQYDNLLWTFGGGTKLEIK	1.89	0.00108	571000	binds	binds	binds	–	–
KE42 (antibody, V domains shown, Mouse monoclonal antibody from a hybridoma; also called anti-FGFR3 antibody KE42) VH: EVQLQQSGPELVKPGASVKMSCKASGYTFTDYNMHWVKQSHGKSLQWIGYINPNNGGTNYNQNFKDKATLTVNKSSTTAYMELRSLTSEDSAVYYCARERDYDGSMDFWGQGTSVTVSS VL: DIQMTQSPSSLSASLGGKVTITCKASQDINKFIAWYQHKPGKGPRLLIHYTSTLQPGIPSRFSGSGSGRDYSFSISNLEPEDIATYFCLQYDNLLWTFGGGTKLEIK	0.81	0.0006	739000	binds	binds	binds	–	–
KC18_Hu28 (antibody, human IgG1, kappa, V domains shown) VH: QVQLVQSGAEVVKPGASVKLSCKASGDTFTDFEIHWVKQAPGQGLEWIGDIDPETGGTAYNQKFQGRATLTADRSSSTAYMELSRLRSDDTAVYYCTRTYDGYPYAMDYWGQGTTVTVSS VL: DIVMTQSPSSLAVSLGERVTMNCKSSQSLLYSNNQKNYLAWYQQKPGQSPKLLIYWASTRESGVPDRFSGSGSGTDFTLTISSVQAEDVAVYYCQQYYSYRTFGGGTKLEIKR	–	–	–	–	–	–	4.46	5.41
KC18_Hu34 (antibody, human IgG1, kappa, V domains shown) VH: QVQLVQSGAEVVKPGASVKLSCKASGDTFTDFEIHWVKQAPGQGLEWIGDIDPETGGTAYNQKFQGRATLTADRSSSTAYMELSRLRSDDTAVYYCTRTYDGYPYAMDYWGQGTTVTVSS VL: DIVMTQSPLSLAVTVGEKVSISCRSSQSLLYSNNQKNYLAWYQQKPGQSPKLLIYWGSTRESGVPDRFSGSGSGTDFTLTISRVEAEDVGVYYCQQYYSYRTFGGGTKLEIKR	–	–	–	–	–	–	6.85	8.14

— patent US20220056142A1 (Sanofi, published 2022)
